B1: HDV Ribozyme (parent)
chain: GGCCGGCAUGGUCCCAGCCUCCUCGCUGGCGCCGGCUGGGCAACAUUCCGAGGGGACCGUCCCCUCGGUAAUGGCGAAUGGGACCCA

Variants of: B1
Assay: self-cleavage, relative activity (ratio to wild type); higher = more cleavage; co-transcriptional

Variant	self-cleavage
C19G A42C	0.0978
C19G A42U	0
C18U C61U	0.481
C19A A42U	0.0216
C19A A42C	0.026
C18U C33U	0.463
C19A C64A	0.141
C19A C64G	0.111
C19A C64U	0.128
C19A G59C	0.04
C19A G53C	0.23
C19A G55A	0.0906
C18U U60C	0.7
C19A G67C	0.0615
C19A U37G	0.151
C19A U37A	0.0519
C19A A43C	0.0665
C19A A43G	0.0354
C18U G53U	0.918
C19A C33A	0.0852
C19A C33U	0
C18U U37G	0.128
C18U U37A	0.0773
C18U U37C	0.554

Variant	self-cleavage
C18U C86A	0.82
C18U C86U	0.886
C18U C75U	0.134
C18U C75G	0.133
C19A U23A	0.0302
C19A A70G	0.136
C19A A70U	0.277
C19A A70C	0.0573
C19A G25C	0.0386
C18U C44A	0.0978
C18U C44G	0.142
C18U U47C	0.332
C18U U47A	0.293
C19A C36A	0.119
C19A A45U	0.199
C19A A45G	0.0369
C19A A45C	0.0755
C19A U69A	0.143
C19A U69G	0.12
C18U C57U	0.867
C18U C57A	0.958
C18U G38C	0.0297
C18U G38U	0.0875
C18U G76A	0.728

Variant	self-cleavage
C18U G54A	0.295
C19A G29C	0.0941
C19A G29A	0
C19A A77U	0.145
C19A A77C	0.0941
C19A C30U	0.0623
C19A C30G	0.0437
C19A U72G	0.095
C19A U72C	0.0978
C19A C32G	0.116
C19A C32U	0.0841
C19A G73C	0.058
C18U G74A	0.0639
C19A C24G	0.158
C18U G28U	0.0573
C18U G28A	0.0346
C18U U23G	0.383
C18U G40U	0.314
C18U G31C	0.0326
C18U G31U	0.119
C19A G39U	0.0639
C19A G35C	0.125
C18U C64G	0.736
C18U C64U	0.751

Variant	self-cleavage
C18U C64A	0.332
C18U C58G	0.778
C19A G40C	0.0587
C19A G40U	0.0437
C18U C66A	0.407
C18U C66U	0.801
C19A C63U	0.1
C19A C63G	0.256
C19A U79C	0.107
C19A U79G	0.0923
C19A U46C	0.0665
C19A C44U	0.0191
C19A C44A	0.149
C19A C21A	0.142
C19A C21G	0.166
C18U C49U	0.587
C18U C62A	0.599
C18U C62G	0.543
C18U G50A	0.852
C19A G68C	0.149
C19A G68U	0.178
C19A G52A	0.0863
C19A C61U	0.0671
C19A C61A	0.12

Variant	self-cleavage
C19A C61G	0.095
C18U C63A	0.293
C18U C85A	0.574
C18U G55U	0.595
C18U G55A	0.919
C19A C26G	0.312
C19A C26U	0.929
C19A C26A	0.462
C18U U79A	0.178
C18U U79C	0.168
C19A C86G	0.0548
C19A C86A	0.273
C19A C86U	0.0674
C19A G80A	0.0329
C19A C62A	0.0536
C19A A51G	0.0712
C19A A51C	0.0733
C19A A51U	0.175
C18U C41G	0.0314
C18U C48A	0.644
C19A A83G	0.122
C18U C84A	0.573
C18U C84U	0.44
C18U C84G	0.308

Variant	self-cleavage
C18U C36G	0.142
C19A C41G	0
C19A C41U	0.0382
C19A C41A	0.0268
C19A G38U	0.0346
C19A G54A	0.0536
C19A C66A	0.211
C19A C66G	0.115
C18U G52A	0.737
C18U G52C	0.774
C18U G52U	0.594
C19A U27G	0.158
C19A A56C	0.173
C18U U46C	0.374
C19G	0.0688
C19A	0.123
C19A G50U	0.254
C19A G50A	0.0231
C19A C75A	0.185
C19A G74C	0.125
C19A G74U	0.101
C19A U60C	0.107
C19A U60A	0.141
C19A U60G	0.0361

Variant	self-cleavage
C19A C58G	0.0519
C19A C58U	0.168
C18U G35A	0.0906
C18U G35U	0.0791
C19A G81C	0.0272
C18U G25U	0.0297
C18U G25C	0.201
C18U G25A	0.104
C18U G39U	0.0997
C18U G39A	0.0302
C18U G82C	0.166
C18U G73A	0.161
C19A C49G	0.0733
C19A C49A	0.0504
C19A G31A	0.117
C19A G28C	0.0462
C19A U20C	0
C19A G82U	0.0898
C19A G82C	0.133
C19A C85U	0.166
C19A A71C	0.0396
C19A A71G	0.136
C19A A71U	0.0978

Source: the RNAGym collection of RNA variant scans (doi:10.7554/elife.80360)
